Assay results from patent publication US20260124314A1, “ANTl-5T4 ANTIGEN BINDING DOMAINS, ANTIBODY-DRUG CONJUGATES AND METHODS OF USE THEREOF” (Salubris Biotherapeutics, Inc., priority 2023, published 2026).

Experiments:
[1] = target: T1, FcγRIIIa (158V) (Homo sapiens, UniProt P08637, F176V); assay: FcγR binding activity, Biacore SPR; conditions: antibody captured on protein A chip, receptor 0.41 nM to 100 nM
T1 construct: purchased Sino Biological
Procedure: (§1) A total of 5 Fc receptors, including FcγRI (Abcam), FcγRIIa, FcγRIIb, FcγRIIIa (158V), and FcγRIIIb (Sino Biological), were analyzed. One parental anti-5T4 Antibody (Ab1) without Fc mutations, was used as a positive control for FcR binding. SPR kinetic experiments were performed on Biacore 8K systems (GE Healthcare) with HBS-EP+ as running buffer. […] Capture level for each ligand was maintained between 50-100RU. […] After each binding cycle, the sensor chip was regenerated with glycine solution, pH 1.5. The resulting sensorgrams were fitted with a one-to-one binding model to extract kinetic constants using Biacore 8K Evaluation Software.

[2] = target: T2, FcγRI (Homo sapiens, UniProt P12314); assay: FcγR binding activity, Biacore SPR; conditions: antibody captured on protein A chip, receptor 0.41 nM to 100 nM
T2 construct: purchased Abcam
Procedure: as §1

[3] = target: T3, FcγRIIIb (Homo sapiens, UniProt O75015); assay: FcγR binding activity, Biacore SPR; conditions: antibody captured on protein A chip, receptor 0.41 nM to 100 nM
T3 construct: purchased Sino Biological
Procedure: (§2) Site mutations (L234F and S239C) in the Fc region of anti-5T4 bispecific antibody-drug conjugates were designed to mitigate potential side effects which could be caused by the antibody effector function. To confirm the mutations had the intended effect of reducing Fc receptor binding activities, the affinities between an anti-5T4 bispecific antibody with Fc mutations and an array of Fc receptors were evaluated by Biacore assay. A total of 5 Fc receptors, including FcγRI (Abcam), FcγRIIa, FcγRIIb, FcγRIIIa (158V), and FcγRIIIb (Sino Biological), were analyzed. One parental anti-5T4 Antibody (Ab1) without Fc mutations, was used as a positive control for FcR binding. SPR kinetic experiments were performed on Biacore 8K systems (GE Healthcare) with HBS-EP+ as running buffer. Antibodies were captured in the active flow cell of a protein A sensor chip (Cytiva). Capture level for each ligand was maintained between 50-100RU. For kinetic analysis, each receptor was serially diluted to 6 different concentrations, ranging from 0.41 nM to 100 nM, and the serial dilutions were injected sequentially over both reference and active flow cells in each single channel. After each binding cycle, the sensor chip was regenerated with glycine solution, pH 1.5. The resulting sensorgrams were fitted with a one-to-one binding model to extract kinetic constants using Biacore 8K Evaluation Software.
(§3) Site mutations (L234F, S239C and N434A) in the Fc region of the Bs3-HL biparatopic antibody are designed to mitigate potential side effects caused by the antibody effector function.

[4] = target: T4, FcγRIIa (Homo sapiens, UniProt P12318); assay: FcγR binding activity, Biacore SPR; conditions: antibody captured on protein A chip, receptor 0.41 nM to 100 nM
T4 construct: purchased Sino Biological
T4 sequence (P12318 34-317): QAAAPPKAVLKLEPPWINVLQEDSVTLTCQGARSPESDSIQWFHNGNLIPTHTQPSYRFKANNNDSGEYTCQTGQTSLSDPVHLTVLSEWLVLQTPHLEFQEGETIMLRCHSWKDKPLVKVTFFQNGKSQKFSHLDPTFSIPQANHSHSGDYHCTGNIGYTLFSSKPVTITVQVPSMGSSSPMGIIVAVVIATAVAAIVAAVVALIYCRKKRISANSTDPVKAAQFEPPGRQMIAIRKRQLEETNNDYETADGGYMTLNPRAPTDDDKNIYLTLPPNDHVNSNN
Procedure: as §2, §3

[5] = target: T5, FcγRIIb (Homo sapiens, UniProt P31994); assay: FcγR binding activity, Biacore SPR; conditions: antibody captured on protein A chip, receptor 0.41 nM to 100 nM
T5 construct: purchased Sino Biological
T5 sequence (P31994 43-310): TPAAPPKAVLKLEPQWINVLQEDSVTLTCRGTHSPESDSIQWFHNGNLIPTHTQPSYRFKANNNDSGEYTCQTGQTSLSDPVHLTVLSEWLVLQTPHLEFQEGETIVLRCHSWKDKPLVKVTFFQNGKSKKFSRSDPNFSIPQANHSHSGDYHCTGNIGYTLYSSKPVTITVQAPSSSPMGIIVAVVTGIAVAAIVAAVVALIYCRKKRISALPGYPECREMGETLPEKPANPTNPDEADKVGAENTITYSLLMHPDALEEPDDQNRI
Procedure: as §2, §3

[6] = target: T6, FcγRIIIb (UniProt O75015 17-200, limits assumed); assay: SPR (Biacore 8K), antibody captured on Protein A chip, Fc receptor as analyte
T6 construct: also called Fc gamma receptor IIIb
Procedure: as §1, with “One parental anti-5T4 Antibody (Ab1) without Fc mutations, was used as a positive control for FcR binding.” left out

[7] = target: T7, FcγRIIIa (158V) (UniProt P08637 17-208); assay: as above
T7 construct: 158 is usually counted on the mature protein (176 on the precursor); also called Fc gamma receptor IIIa
Procedure: as §1, with “One parental anti-5T4 Antibody (Ab1) without Fc mutations, was used as a positive control for FcR binding.” left out

[8] = target: T8, FcγRIIa (UniProt P12318 34-218, limits assumed); assay: SPR (Biacore 8K), antibody captured on Protein A chip, Fc receptor as analyte, 1:1 model
T8 construct: also called Fc gamma receptor IIa
T8 sequence (looked up): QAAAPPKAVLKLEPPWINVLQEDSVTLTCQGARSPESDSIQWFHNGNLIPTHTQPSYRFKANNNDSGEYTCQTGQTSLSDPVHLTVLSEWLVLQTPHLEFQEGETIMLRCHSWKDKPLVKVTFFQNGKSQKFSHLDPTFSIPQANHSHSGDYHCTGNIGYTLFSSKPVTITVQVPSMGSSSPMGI
Procedure: as §1, with “One parental anti-5T4 Antibody (Ab1) without Fc mutations, was used as a positive control for FcR binding.” left out

[9] = target: T9, FcγRIIb (UniProt P31994 43-217, limits assumed); assay: as above
T9 construct: also called Fc gamma receptor IIb
T9 sequence (looked up): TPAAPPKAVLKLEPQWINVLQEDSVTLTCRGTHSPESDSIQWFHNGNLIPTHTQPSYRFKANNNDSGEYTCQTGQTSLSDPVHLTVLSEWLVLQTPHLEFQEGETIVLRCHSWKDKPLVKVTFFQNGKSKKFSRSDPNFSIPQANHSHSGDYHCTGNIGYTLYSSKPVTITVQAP
Procedure: as §1, with “One parental anti-5T4 Antibody (Ab1) without Fc mutations, was used as a positive control for FcR binding.” left out

[10] = target: T10, FcγRI (Abcam) (UniProt P12314 16-288, limits assumed); assay: as above
T10 construct: also called Fc gamma receptor I
Procedure: as §1, with “One parental anti-5T4 Antibody (Ab1) without Fc mutations, was used as a positive control for FcR binding.” left out

[11] = target: T11, recombinant human 5T4 protein (human, UniProt Q13641 32-355); assay: SPR (Biacore 8K), antibody captured on Protein A chip, 5T4 as analyte 0.625-10 nM, 1:1 model
T11 construct: The ELISA protein was bought (Sino biologics and Biorbyt); also called recombinant 5T4 protein; trophoblast glycoprotein (TPBG)
T11 sequence: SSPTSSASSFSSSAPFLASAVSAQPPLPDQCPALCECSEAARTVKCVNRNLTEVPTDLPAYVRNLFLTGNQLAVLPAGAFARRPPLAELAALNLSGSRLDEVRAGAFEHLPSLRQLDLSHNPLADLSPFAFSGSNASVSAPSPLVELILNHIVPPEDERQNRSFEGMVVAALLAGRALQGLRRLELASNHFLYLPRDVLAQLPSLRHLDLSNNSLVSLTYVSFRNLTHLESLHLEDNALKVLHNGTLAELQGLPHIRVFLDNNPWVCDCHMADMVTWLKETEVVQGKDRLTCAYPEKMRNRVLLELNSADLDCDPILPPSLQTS
Procedure: The binding affinity of anti-5T4 bispecific antibody-drug conjugate monospecific and bispecific antibodies to 5T4 was measured by Biacore kinetic experiments using a Protein A sensor chip on Biacore 8K (Cytiva) with HBS-EP+ as running buffer. […] After each binding cycle, the sensor chip was regenerated with glycine solution, pH 1.5. Signals from reference surface and an ensemble of buffer blank injections were subtracted from binding signals to correct for nonspecific binding and injection artifacts. The corrected experimental signals were globally fitted to a 1:1 binding model to extract kinetic constants, including association rate constant (ka), dissociation rate constant (kd), and equilibrium dissociation constant (KD), using the Biacore 8K Evaluation Software.

T10 sequence (P12314 16-288 limits assumed): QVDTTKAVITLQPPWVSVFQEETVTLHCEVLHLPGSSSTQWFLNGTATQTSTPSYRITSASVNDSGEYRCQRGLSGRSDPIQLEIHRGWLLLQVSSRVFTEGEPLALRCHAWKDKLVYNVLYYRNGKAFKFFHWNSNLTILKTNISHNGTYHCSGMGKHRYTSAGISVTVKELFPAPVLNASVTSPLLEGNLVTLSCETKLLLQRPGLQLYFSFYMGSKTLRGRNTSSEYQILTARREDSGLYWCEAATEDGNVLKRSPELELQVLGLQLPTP
T1 sequence (P08637 17-208 F176V limits assumed): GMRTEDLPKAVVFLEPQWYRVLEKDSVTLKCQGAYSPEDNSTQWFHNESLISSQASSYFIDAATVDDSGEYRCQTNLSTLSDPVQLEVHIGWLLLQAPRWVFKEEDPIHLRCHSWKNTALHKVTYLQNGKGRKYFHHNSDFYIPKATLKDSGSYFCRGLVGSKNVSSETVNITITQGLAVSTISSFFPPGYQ
T7 sequence (P08637 17-208 F176V): as the sequence (P08637 17-208 F176V limits assumed) above
T2 sequence (P12314 16-374): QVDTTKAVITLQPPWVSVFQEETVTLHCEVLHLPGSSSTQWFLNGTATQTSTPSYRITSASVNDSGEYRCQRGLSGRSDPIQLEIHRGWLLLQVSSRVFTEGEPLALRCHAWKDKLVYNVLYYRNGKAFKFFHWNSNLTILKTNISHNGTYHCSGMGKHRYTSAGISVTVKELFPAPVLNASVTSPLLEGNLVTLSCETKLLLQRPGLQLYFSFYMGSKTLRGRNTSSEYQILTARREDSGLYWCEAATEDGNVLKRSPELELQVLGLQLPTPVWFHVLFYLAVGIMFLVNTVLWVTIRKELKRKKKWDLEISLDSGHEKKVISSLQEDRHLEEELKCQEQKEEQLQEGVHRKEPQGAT
T6 sequence (O75015 17-200 limits assumed): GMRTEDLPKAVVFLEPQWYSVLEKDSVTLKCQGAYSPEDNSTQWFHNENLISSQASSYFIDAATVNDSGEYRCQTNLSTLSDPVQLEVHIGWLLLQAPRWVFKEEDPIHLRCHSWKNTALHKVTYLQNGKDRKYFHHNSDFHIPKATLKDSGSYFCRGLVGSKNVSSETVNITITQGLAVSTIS
T3 sequence (O75015 17-200): as the sequence (O75015 17-200 limits assumed) above

B1: Parental Ab1 without Fc mutations: parental anti-5T4 Antibody (Ab1) without Fc mutations, used as a positive control for FcR binding (antibody, V domains shown)
VH: QVQLVQSGAEVKKPGASVKVSCKASGYSFTDYYMHWVRQAPGQGLEWMGRVSPNNGATNTNQKFKDRVTMTRDTSISTAYMELRSLRSEDTAVYYCARSTMITSYYFDYWGQGTLVTVSS
VL: DIVMTQSPSFLSVSVGDRVTITCKASQSVSTDVAWYQQKPGQAPKLLIYFASDRYTGVPDRFSGSGSGTDFTFTISSLQAEDVAVYYCQQDYSSPPTFGGGTKLEIK
B1 was tested, and the Kd [1] was 50.5 nM, the Kd [2] was 3.73 nM and the “KD for binding to FcγRIIIb” value [3] was “No binding”. For the same molecule, the Kd [4] was 98.6 nM and the Kd [5] was 111 nM.

B2: Bs3-HL-FCA biparatopic anti-5T4 antibody (Bs3 with the scFv in the VH-VL orientation and the L234F, S239C and N434A mutations) (bispecific antibody, human IgG1, kappa)
heavy: QVQLVQSGAEVKKPGASVKVSCKASGYSFTDYYMHWVRQAPGQGLEWMGRVSPNNGATNTNQKFKDRVTMTRDTSISTAYMELRSLRSEDTAVYYCARSTMITSYYFDYWGQGTLVTVSSASTKGPSVFPLAPSSKSTSGGTAALGCLVKDYFPEPVTVSWNSGALTSGVHTFPAVLQSSGLYSLSSVVTVPSSSLGTQTYICNVNHKPSNTKVDKRVEPKSCDKTHTCPPCPAPEFLGGPCVFLFPPKPKDTLMISRTPEVTCVVVDVSHEDPEVKFNWYVDGVEVHNAKTKPREEQYNSTYRVVSVLTVLHQDWLNGKEYKCKVSNKALPAPIEKTISKAKGQPREPQVYTLPPSREEMTKNQVSLTCLVKGFYPSDIAVEWESNGQPENNYKTTPPVLDSDGSFFLYSKLTVDKSRWQQGNVFSCSVMHEALHAHYTQKSLSLSPGKGGGGSGGGGSGGGGSEVQLLESGGGLVQPGGSLRLSCAASGFDFSRYWMTWVRQAPGKCLEWVSEINPDSRTINYTPSLKDRFTISRDNAKNTLYLQMNSLRAEDTAVYYCARPDHDYNPYYFNYWGQGTTVTVSSGGGGSGGGGSGGGGSGGGGSDIVLTQSPASLAVSLGQRATISCRPSQSVSTSSNSYIHWYQQKPGQPPKLLIKYASNLESGVPARFSGSGSGTDFTLTISPVEAEDTATYYCQQSWEIPLTFGCGTKLEIK
light: DIVMTQSPSFLSVSVGDRVTITCKASQSVSTDVAWYQQKPGQAPKLLIYFASDRYTGVPDRFSGSGSGTDFTFTISSLQAEDVAVYYCQQDYSSPPTFGGGTKLEIKRTVAAPSVFIFPPSDEQLKSGTASVVCLLNNFYPREAKVQWKVDNALQSGNSQESVTEQDSKDSTYSLSSTLTLSKADYEKHKVYACEVTHQGLSSPVTKSFNRGEC
notes: also called 5T4-Bs3- FCA; BsAb with the FCA mutations
For B2, the binding result [6] was “no binding (tested: receptor 0.41 nM to 100 nM)”, the binding result [7] was “no binding (tested: receptor 0.41 nM to 100 nM)” and the Kd [8] was 91.5 nM. It also gave a Kd [9] of 116 nM, a Kd [10] of 39.6 nM and a Kd [11] of 0.775 nM.
